{"source": "patent US20190241662A1", "about": "(ADAGENE, published 2019)", "binders": {"B1": {"name": "TY21687 (antibody, V domains shown)", "VH": "EVQLVESGGGLVQPGGSLRLSCAASGFTFSGYAIHWVRQAPGKGLEWIGIISPSGGGTKYAQKFQGRVTISRDNSKNTLYLQLNSLRAEDTAVYYCARHPFAYWGQGTLVTVSS", "VL": "DIQLTQSPSSLSASVGDRVTITCRASQSVDFYGISFLDWYQQKPGKAPKLLIYDASNRATGIPSRFSGSGSGTDFTLTISSLQPEDFATYYCQQYVSSPPEYTFGQGTKVEIK", "notes": "human IgG1 (hIgG1) from Fab hit B15700"}, "B2": {"name": "TY21585 (antibody, V domains shown)", "VH": "EVQLVESGGGLVQPGGSLRLSCAASGFTFSDYAIHWVRQAPGKGLEWIGIISPSSGSTNYAQKFQGRVTISRDNSKNTLYLQLNSLRAEDTAVYYCARDIHSGSSGYYYGFDVWGQGTLVTVSS", "VL": "B1 VL with Q27E, Y32F, D38A, Q94H, V96T, E101V", "notes": "human IgG1 (hIgG1) from Fab hit B15709"}, "B3": {"name": "TY21591 (antibody, V domains shown)", "VH": "EVQLVESGGGLVQPGGSLRLSCAASGFSLSTGGVAVSWIRQAPGKGLEWIGEIYHSGSTYYSPSLKSRVTISRDNSKNTLYLQLNSLRAEDTAVYYCARRIATATYFDYWGQGTLVTVSS", "VL": "DIQLTQSPSSLSASVGDRVTITCRASQTVFSRYLAWYQQKPGKAPKLLIYDASNRATGIPSRFSGSGSGTDFTLTISSLQPEDFATYYCQQSYYWPPWTFGQGTKVEIK", "notes": "human IgG1 (hIgG1) from Fab hit B15756"}}, "test_in_all_cases": "flow cytometry, transfected HEK293F cells, 100 nM antibody [Cont.]", "key": {"[1]": {"target": "T1, human PD1 on HEK293F cells (human, UniProt Q15116 25-288)", "T1 construct": "whole, on cells", "T1 sequence (Q15116 25-288)": "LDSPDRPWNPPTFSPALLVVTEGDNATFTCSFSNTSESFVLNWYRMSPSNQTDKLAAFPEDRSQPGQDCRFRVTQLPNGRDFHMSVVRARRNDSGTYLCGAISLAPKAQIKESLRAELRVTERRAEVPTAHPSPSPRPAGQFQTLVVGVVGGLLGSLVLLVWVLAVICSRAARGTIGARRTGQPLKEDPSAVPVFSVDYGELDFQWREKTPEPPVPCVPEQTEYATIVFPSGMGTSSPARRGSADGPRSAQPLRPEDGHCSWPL", "experimental": "(§1) Antibody selectivity was next examined. Human CTLA4, PD1, LAG3, Tim3, B7H3, CD95, TNFR1, OX40, CD40, PD-L1, BLTA, VISTA, PDL2, ICOS and B7H4 were transiently overexpressed on the surface of HEK293F cells. Transfected cells were washed in pre-chilled 1×PBSA buffer (1.76 mM KH2PO4, 10.14 mM Na2HPO4.12H2O, 2.68 mM KCl, 136.89 mM NaCl and 1% BSA), then incubated with 100 nM test antibodies for 1 hour on ice. Cells were washed once with staining buffer, and Alexa Fluor® 647 conjugated mouse anti-human FC antibodies were added and incubated for 30 minutes on ice, protected from light. Samples were washed once with staining buffer prior to analysis by flow cytometry."}, "[2]": {"target": "T2, human LAG3 on HEK293F cells (human, UniProt P18627 23-525)", "T2 construct": "whole, on cells", "T2 sequence (looked up)": "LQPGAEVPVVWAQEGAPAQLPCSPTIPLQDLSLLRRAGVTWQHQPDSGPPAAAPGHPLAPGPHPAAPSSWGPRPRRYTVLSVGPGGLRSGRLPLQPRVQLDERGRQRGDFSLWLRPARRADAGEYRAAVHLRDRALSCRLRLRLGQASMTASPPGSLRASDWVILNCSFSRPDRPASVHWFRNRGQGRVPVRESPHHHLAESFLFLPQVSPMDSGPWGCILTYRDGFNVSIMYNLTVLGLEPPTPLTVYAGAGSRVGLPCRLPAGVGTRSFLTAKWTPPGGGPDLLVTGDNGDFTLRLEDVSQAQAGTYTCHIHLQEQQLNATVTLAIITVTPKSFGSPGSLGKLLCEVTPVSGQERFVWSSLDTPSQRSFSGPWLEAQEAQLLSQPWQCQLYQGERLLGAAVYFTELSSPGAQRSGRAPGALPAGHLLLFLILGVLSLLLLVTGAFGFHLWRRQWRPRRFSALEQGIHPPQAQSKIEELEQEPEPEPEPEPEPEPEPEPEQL", "experimental": "as §1"}, "[3]": {"target": "T3, human Tim3 on HEK293F cells (human, UniProt Q8TDQ0 22-301)", "T3 construct": "whole, on cells", "T3 sequence (looked up)": "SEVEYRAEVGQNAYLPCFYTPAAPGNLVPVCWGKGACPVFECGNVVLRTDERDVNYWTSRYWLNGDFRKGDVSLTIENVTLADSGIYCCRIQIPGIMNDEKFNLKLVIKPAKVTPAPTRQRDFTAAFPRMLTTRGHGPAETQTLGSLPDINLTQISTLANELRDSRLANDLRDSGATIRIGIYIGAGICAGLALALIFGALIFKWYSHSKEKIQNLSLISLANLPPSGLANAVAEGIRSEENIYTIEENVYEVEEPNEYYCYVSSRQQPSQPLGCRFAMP", "experimental": "as §1"}, "[4]": {"target": "T4, human CD40 on HEK293F cells (human, UniProt P25942 21-277)", "T4 construct": "whole, on cells", "T4 sequence (P25942 21-277)": "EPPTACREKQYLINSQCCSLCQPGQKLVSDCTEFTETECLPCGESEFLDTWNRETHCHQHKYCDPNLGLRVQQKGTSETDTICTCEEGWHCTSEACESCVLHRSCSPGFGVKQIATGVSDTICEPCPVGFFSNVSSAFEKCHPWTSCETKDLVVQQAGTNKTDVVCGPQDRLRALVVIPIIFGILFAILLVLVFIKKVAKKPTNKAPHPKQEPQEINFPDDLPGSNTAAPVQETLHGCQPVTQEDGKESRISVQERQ", "experimental": "as §1"}, "[5]": {"target": "T5, human CD95 on HEK293F cells (human, UniProt P25445 26-335)", "T5 construct": "whole, on cells", "T5 sequence (looked up)": "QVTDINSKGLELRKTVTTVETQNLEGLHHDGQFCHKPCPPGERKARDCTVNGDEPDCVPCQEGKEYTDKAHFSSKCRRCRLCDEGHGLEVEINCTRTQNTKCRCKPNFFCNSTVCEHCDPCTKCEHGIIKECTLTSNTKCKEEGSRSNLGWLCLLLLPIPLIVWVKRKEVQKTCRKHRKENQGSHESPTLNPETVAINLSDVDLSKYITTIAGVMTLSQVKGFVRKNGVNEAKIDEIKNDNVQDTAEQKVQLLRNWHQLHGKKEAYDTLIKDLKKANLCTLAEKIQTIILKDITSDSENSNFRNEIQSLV", "experimental": "as §1"}, "[6]": {"target": "T6, human TNFR1 on HEK293F cells (human, UniProt P19438 30-455)", "T6 construct": "whole, on cells; also called CD120a", "T6 sequence (looked up)": "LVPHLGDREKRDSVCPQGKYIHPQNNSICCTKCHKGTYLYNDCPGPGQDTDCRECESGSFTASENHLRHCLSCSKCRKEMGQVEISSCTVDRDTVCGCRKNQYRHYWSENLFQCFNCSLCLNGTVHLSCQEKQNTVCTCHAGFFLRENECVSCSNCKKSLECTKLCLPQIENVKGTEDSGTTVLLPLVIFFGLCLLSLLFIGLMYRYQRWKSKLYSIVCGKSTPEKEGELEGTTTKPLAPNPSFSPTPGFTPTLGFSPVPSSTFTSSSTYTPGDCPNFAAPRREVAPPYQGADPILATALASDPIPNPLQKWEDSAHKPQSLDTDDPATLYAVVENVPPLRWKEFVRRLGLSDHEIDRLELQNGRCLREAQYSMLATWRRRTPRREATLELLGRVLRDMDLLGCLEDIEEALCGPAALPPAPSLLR", "experimental": "as §1"}, "[7]": {"target": "T7, human OX40 on HEK293F cells (human, UniProt P43489 29-277)", "T7 construct": "whole, on cells", "T7 sequence (looked up)": "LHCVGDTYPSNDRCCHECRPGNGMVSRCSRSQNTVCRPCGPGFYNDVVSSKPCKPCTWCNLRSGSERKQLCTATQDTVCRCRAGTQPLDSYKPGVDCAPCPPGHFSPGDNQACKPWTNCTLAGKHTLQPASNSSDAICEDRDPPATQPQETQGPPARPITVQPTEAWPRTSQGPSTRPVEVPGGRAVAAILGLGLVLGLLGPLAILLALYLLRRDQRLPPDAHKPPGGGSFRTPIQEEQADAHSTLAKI", "experimental": "as §1"}}, "note": "Numbering of substitutions follows the chain as printed.", "data": [{"binder": "B1", "values": [{"measurement": "% of cells in upper right quadrant (Q2)", "setting": "[1]", "value": 5.96, "unit": "%"}, {"measurement": "% of cells in upper right quadrant (Q2)", "setting": "[2]", "value": 1.31, "unit": "%"}, {"measurement": "% of cells in upper right quadrant (Q2)", "setting": "[3]", "value": 1.85, "unit": "%"}]}, {"binder": "B2", "values": [{"measurement": "% of cells in upper right quadrant (Q2)", "setting": "[4]", "value": 0.95}, {"measurement": "Mean", "setting": "[4]", "value": 8270}]}, {"binder": "B3", "values": [{"measurement": "% of cells in upper right quadrant (Q2)", "setting": "[5]", "value": 0.22}, {"measurement": "Mean", "setting": "[5]", "value": 5570}, {"measurement": "% of cells in upper right quadrant (Q2)", "setting": "[6]", "value": 0.33}, {"measurement": "Mean", "setting": "[6]", "value": 6490}, {"measurement": "% of cells in upper right quadrant (Q2)", "setting": "[7]", "value": 0.42}, {"measurement": "Mean", "setting": "[7]", "value": 11900}]}]}
